Laboratory results taken from US9803013B2, “Biological materials and uses thereof” (BioInvent International AB, priority 2005, dated 2017).

How the values were obtained:
[1] = test system: CL-01 B lymphoma cells; assay: Mitochondrial membrane depolarisation assay (JC-1); type: cell-based, human; details: CL-01, JC-1 staining, 2 μg/ml IgG cross-linked, 6 h
Experimental: FIG. 4A. […] Cells were incubated at 37° C. for 6 h and the effect of the antibody incubation was determined by two independent apoptosis assays. Cells were stained either by AV/PI (upper panel), similarly as described above, or by incubation with 5 μg/ml of the mitochondrial membrane depolarisation reagent JC-1 for 30 min at RT (lower panel). Induction of apoptosis is detectable by a decrease in the red (y-axis)/green (x-axis) fluorescence intensity ratio. (FIG. 4B) Histology section showing representative binding of B11 antibody to B lymphoma tissue. Cryo-preserved tissue obtained from a patient with Anaplastic Large Cell B Lymphoma was stained with B11 or FITC-8 (control) scFv antibody. Antibody binding was detected with DAB (brown colour). […] IgG B11 binding to the different cell populations was recorded in the FL4 channel.
Mitochondrial membrane depolarisation was analysed as previously described (Kim et al., Mol. Biol. Cell (2004) 15:420-434). […] Cells were washed twice in ice-cold PBS and resuspended in […] PBS and analysed on a FACS Aria (BD Biosciences). The green and red fluorescence was collected through 494/518 nm (FL-1) and 595/615 nm (FL-2) bandpass filters, respectively. […]

[2] = test system: B lymphoma tissue; assay: Immunohistochemistry on cryopreserved lymph node biopsies; type: binding, human; parameters: key: Increasing numbers of + indicate stronger staining.; ++: Increasing numbers of + indicate stronger staining.; +++: Increasing numbers of + indicate stronger staining
Experimental: Cryopreserved lymph node biopsies of patients with Anaplastic Large Cell B lymphoma (one patient), Centroblastic/Centrocytic B non-Hodgkin lymphoma (three patients), and B cell chronic lymphocytic leukaemia (one patient) were obtained from the Department of Pathology at Lund University (Lund, Sweden). Eight-micrometer sections of cryo-preserved tissue were fixed in acetone for 10 min at 4° C. Endogenous biotin-binding activity was blocked by sequential treatment with Avidin and Biotin (Avidin/Biotin blocking kit, Invitrogen) for 20 min each.
Tissues were incubated with 5 μg/ml control scFv or B11 scFv for 1 h. Following washing, sections were incubated with biotin-conjugated mouse anti-His mAb (R&D Systems) for 30 min. scFv binding was detected following treatment with ABC Complex/HRP reagent (Dako Cytomation) for 30 min, and subsequent incubation with DAB for 5 min.
Sections were photographed using a Leica DC 300F digital camera mounted on top of a Leica DMR light/fluorescence microscope.

[3] = test system: RPMI-8226; assay: SCID/xenograft MM model, subcutaneous; type: in vivo, mouse; details: RPMI-8226 (ICAM-1+), 2 mg/kg twice weekly from one day after tumor cell injection
Experimental: (§1) Since high expression of the BI-505 epitope in human MM was found, BI-505 was screened for in vivo anti-myeloma activity using SCID/xenograft models comprising four well-characterized MM cell-lines. […] Twice weekly dosing with 2 mg/kg of BI-505 starting one day after tumor cell injection reduced myeloma tumor growth in mice xenografted with ICAM-1-expressing cell lines EJM, RPMI-8226, and NCI-H929 by 98%, 96%, and 99%, respectively (FIGS. 17A and B).
(§2) All studies were conducted in accordance with guidelines of the Lund University Hospital, Sweden or University of Utah, Salt Lake City, USA following approval from the local ethical committee for animal care and use. BI-505 efficacy and potency was examined in subcutaneous and disseminated, prophylactic and therapeutic, experimental MM models comprising myeloma cell lines RPMI-8226, U266, EJM and OPM-2. The in vivo efficacy of BI-505 was compared to clinically approved drugs dexamethasone, melphalan, bortezomib and revlimid used at clinically relevant doses in therapeutic disseminated models comprising RPMI-8226 or primary patient myeloma cells, the latter following injection of patient cells in implanted of human fetal bone in SCID mice. For subcutaneous grafting, 1-5×10^6 tumor cells (RPMI-8226, NCI-H929, EJM, OPM-2, ARH-77, or Daudi) were subcutaneously injected at a volume of 100 μl into the left flank of anesthetized mice as described in the Supplemental Information. […] Treatment with saline, isotype control IgG, bortezomib, lenalidomide, dexamethasone, or BI-505 started on day 5 (RPMI-8226). Treatment with melphalan started on day 10. BI-505 or isotype IgG mAb was administered i.v. at 2 mg/kg/inj twice weekly for 8 weeks; bortezomib at 1 mg/kg/inj once weekly for 8 weeks; lenalidomide orally at 2 mg/kg/inj for 2 cycles consisting of 5 days of treatment and 2 days of wash out; melphalan i.v. at 3 mg/kg/inj once weekly for 8 weeks; and dexamethasone at 6 mg/kg/inj three times weekly for 2 weeks. […] The role of macrophages and NK cells for BI-505 in vivo antitumor activity was assessed using anti-asialo antibody treatment, clodronate liposome treatment or NK-cell deficient mice. […]
(§3) Treatment with antibodies by intraperitoneal injection started either 1 day after cell inoculation (prophylactic model) or when tumors reached approximately 100 mm^3 (established model). […] Macrophage and NK cell depletion was assessed upon termination of tumor bearing mice exposed to effector cell depleting agents (see above), spleens were removed and splenocytes isolated by mincing through a cell strainer (70 μm nylon mesh, BD Falcon 352350), erythrocytes were removed by lysis according to manufacturer (BD Pharm Lyse 555899, BD Biosciences).

[4] = test system: NCI-H929; assay: SCID/xenograft MM model, subcutaneous; type: in vivo, mouse; details: NCI-H929 (ICAM-1+), 2 mg/kg twice weekly from one day after tumor cell injection
Experimental: as §1, §2, §3

[5] = test system: EJM; assay: SCID/xenograft MM model, subcutaneous; type: in vivo, mouse; details: EJM (ICAM-1+), 2 mg/kg twice weekly from one day after tumor cell injection
Experimental: as §1, §2, §3

B1: B11: fully human IgG1 antibody specific for ICAM-1; VH and VL sequences of FIG. 10 (SEQ ID NOs. 6 and 8) (antibody, listed as Homo sapiens, V domains shown)
VH: EVQLLESGGGLVQPGGSLRLSCAASGFTFSNAWMSWVRQAPGKGLEWVAFIWYDGSNKYYADSVKGRFTISRDNSKNTLYLQMNSLRAEDTAVYYCARYSGWYFDYWGQGTLVTVSS
VL: QSVLTQPPSASGTPGQRVTISCTGSSSNIGAGYDVHWYQQLPGTAPKLLIYDNNNRPSGVPDRFSGSKSGTSASLAISGLRSEDEADYYCQSYDSSLSAWLFGGGTKLTVLG
B1 was tested, and the “mitochondrial membrane depolarisation” value [1] was “induce mitochondrial membrane depolarisation”, the “Staining of B lymphoma tissue” value ([2]; Patient A, B-CLL (low malignant non-Hodgkin Lymphoma)) was “+” and the “Staining of B lymphoma tissue” value ([2]; Patient B, Anaplastic Large Cell B Cell Lymphoma) was “++”. For the same molecule, the “Staining of B lymphoma tissue” value ([2]; Patient D, B-CLL/B-PLL) was “++”, the “Staining of B lymphoma tissue” value ([2]; Patient F, Centroblastic-Centrocytic B non-Hodgkin Lymphoma) was “++” and the “reduction of myeloma tumor growth” value [3] was 96%. For the same molecule, the “reduction of myeloma tumor growth” value [4] was 99% and the “reduction of myeloma tumor growth” value [5] was 98%.
